Publication PMC13123425

Target: human VWF-A2 fragment (human)

Sequence of human recombinant wild-type complement factor H (P08603 19-1231): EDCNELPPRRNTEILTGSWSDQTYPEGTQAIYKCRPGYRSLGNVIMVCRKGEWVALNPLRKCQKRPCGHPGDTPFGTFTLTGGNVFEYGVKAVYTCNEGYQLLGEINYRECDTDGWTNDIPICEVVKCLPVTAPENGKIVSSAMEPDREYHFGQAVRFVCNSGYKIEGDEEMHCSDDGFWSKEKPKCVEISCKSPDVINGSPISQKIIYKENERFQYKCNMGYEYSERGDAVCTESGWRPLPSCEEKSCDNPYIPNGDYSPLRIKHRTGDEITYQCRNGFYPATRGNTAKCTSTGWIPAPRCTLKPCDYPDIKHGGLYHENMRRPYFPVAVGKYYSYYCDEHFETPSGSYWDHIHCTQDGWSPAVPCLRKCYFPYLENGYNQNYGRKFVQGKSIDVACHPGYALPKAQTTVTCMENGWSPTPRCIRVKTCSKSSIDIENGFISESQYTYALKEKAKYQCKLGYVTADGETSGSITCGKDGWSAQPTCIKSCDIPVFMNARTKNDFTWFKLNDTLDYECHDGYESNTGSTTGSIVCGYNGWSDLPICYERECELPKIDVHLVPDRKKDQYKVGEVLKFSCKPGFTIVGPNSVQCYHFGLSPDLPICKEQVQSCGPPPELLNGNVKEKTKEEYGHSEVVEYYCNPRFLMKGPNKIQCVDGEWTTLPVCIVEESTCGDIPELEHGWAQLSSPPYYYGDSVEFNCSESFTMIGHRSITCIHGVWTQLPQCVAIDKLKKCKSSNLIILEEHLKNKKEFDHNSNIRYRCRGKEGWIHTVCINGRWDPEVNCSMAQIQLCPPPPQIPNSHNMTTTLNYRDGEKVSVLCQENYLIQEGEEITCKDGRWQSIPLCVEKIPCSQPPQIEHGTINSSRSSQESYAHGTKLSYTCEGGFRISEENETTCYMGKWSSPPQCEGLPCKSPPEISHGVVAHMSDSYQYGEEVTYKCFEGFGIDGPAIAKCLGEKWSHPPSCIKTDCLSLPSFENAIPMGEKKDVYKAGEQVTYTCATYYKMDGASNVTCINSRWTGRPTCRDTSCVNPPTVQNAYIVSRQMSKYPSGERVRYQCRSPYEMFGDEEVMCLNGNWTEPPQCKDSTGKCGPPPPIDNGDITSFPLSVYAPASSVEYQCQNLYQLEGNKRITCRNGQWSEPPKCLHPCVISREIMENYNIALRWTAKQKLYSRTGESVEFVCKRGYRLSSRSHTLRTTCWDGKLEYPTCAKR

| optical tweezer pulling of VWF-A2 (Avi-His/SpyTag, biotinylated construct) with 1.0 μM W1183R-CFH: contour length Lc (no CFH: 55,3 nm) [nm] | optical tweezer pulling of VWF-A2 with 1.0 μM W1183R-CFH: energy barrier position γ, Bell-Evans fit (no CFH: 0.71 nm) [nm] | optical tweezer pulling of VWF-A2 with 1.0 μM W1183R-CFH: persistent length Lp (no CFH: 0.28 nm) [nm] | optical tweezer pulling of VWF-A2 with 1.0 μM W1183R-CFH: unstressed unfolding rate ku0, Bell-Evans fit (no CFH: 0.15 s^-1) [s⁻¹] | optical tweezer pulling of VWF-A2 (Avi-His/SpyTag, biotinylated construct) with 1.0 μM WT-CFH: contour length Lc (no CFH: 55,3 nm) [nm] | optical tweezer pulling of VWF-A2 with 1.0 μM WT-CFH: energy barrier position γ, Bell-Evans fit (no CFH: 0.71 nm) [nm] | optical tweezer pulling of VWF-A2 with 1.0 μM WT-CFH: persistent length Lp (no CFH: 0.28 nm) [nm] | optical tweezer pulling of VWF-A2 with 1.0 μM WT-CFH: unstressed unfolding rate ku0, Bell-Evans fit (no CFH: 0.15 s^-1) [s⁻¹] | Substance |
| --- | --- | --- | --- | --- | --- | --- | --- | --- |
| 31.8 | 1.38 | 0.38 | 0.034 |  |  |  |  | human recombinant W1183R complement factor H (from UniProt P08603 19-1231) (natural protein) |
|  |  |  |  | 40 | 1.88 | 0.38 | 0.017 | human recombinant wild-type complement factor H (from UniProt P08603 19-1231) (natural protein) |
